Source: patent publication US20200239570A1 (CRESCENDO BIOLOGICS, published 2020)
Where two headings read alike, the source gives them in different places.

Assays:
[1] = molecular target: T1, recombinant human PD-1 Fc chimera (human, UniProt Q15116 25-167); assay: HTRF inhibition assay: biotinylated PD-L2-Fc binding to Europium cryptate labelled human PD-1-Fc; the target of the control antibody is not given
T1 construct: Bought (R&D 1086-PD); Labelled with europium cryptate in the PD-L2 HTRF assay; also called human PD-1 (R&D Systems cat no. 1086-PD); human PD-1-huFc; not shown: human Fc of the bought chimera
T1 sequence (Q15116 25-167, change not shown): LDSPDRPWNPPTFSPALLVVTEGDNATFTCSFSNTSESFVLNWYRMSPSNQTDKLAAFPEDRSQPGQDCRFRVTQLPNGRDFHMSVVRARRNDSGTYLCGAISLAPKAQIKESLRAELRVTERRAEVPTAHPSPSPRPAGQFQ

[2] = molecular target: T1, recombinant human PD-1 Fc chimera; assay: HTRF inhibition assay: strep tagged human PD-L1 binding to recombinant human PD-1 (PD-L1 by legend paragraph 65; the sheet's title reads PD1:PDL2); the target of the control antibody is not given
[3] = molecular target: human PD-1 expressed on cells (CHO human PD-1 cells) (human) (UniProt Q15116)
Sequence of human PD-1 expressed on cells (CHO human PD-1 cells) (human) (Q15116 21-288): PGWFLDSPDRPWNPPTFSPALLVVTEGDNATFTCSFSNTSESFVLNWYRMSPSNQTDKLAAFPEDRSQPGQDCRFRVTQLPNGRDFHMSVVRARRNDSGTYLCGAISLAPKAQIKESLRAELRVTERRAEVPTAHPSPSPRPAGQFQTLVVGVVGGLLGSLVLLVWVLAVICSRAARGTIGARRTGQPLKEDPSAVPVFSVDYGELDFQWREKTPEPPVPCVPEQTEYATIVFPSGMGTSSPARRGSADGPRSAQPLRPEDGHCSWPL

[4] = molecular target: human PD-1 expressed on cells (CHO human PD-1 cells) (human) (UniProt Q15116); remark: listed apart in the source
[5] = molecular target: T2, human PD-1 expressed on cells (CHO human PD-1 cells) (human, UniProt Q15116 21-288); assay: cell-based or functional assay
T2 sequence (Q15116 21-288): as above

[6] = molecular target: T3, mouse PD1 (R&D Systems cat no. 1021-PD) (mouse, UniProt Q02242 25-167); assay: HTRF binding assay on mouse PD-1
T3 construct: bought recombinant protein; also called mouse PD-1 protein
T3 sequence (looked up): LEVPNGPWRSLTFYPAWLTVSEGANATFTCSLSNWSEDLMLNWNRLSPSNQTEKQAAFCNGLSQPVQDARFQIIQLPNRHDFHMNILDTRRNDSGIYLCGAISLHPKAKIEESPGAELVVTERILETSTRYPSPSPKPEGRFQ
Method: (§1) Purified VH were tested for their ability to bind to human PD-1 (R&D Systems cat no. 1086-PD), cynomolgus PD-1 (Acro Biosystems cat no. PD1-C5254) and mouse PD1 (R&D Systems cat no. 1021-PD) in an HTRF Binding assay format. All reagents and serially diluted VH were prepared in assay buffer containing PBS, 0.1% BSA and 0.4M Potassium Fluoride. Samples or assay buffer (non-specific binding) were incubated with 2 nM human/cynomolgus or mouse PD-1, 1 nM Anti human-Fc Cryptate PAb (Cisbio cat. no. 61HFCKLB) and 30 nM anti His-D2 (CisBio cat no 61HISDLA) in black 384-shallow well assay plates for a minimum of 3 hours at room temperature. Time-resolved fluorescent emission at 620 nm and 665 nm was measured following excitation at 337 nm on the BMG PHERAstar plate reader. The HTRF ratio were calculated ((665 nm emission/620 nm emission)*10000) and the data corrected for (non-specific binding) to give the specific binding signal.

[7] = molecular target: T1, recombinant human PD-1 Fc chimera; assay: BLI (Octet), PD-1-huFc on biosensor, 1:1 fit
Method: Binding kinetics of clones to human PD-1-huFc were measured in real-time bio-layer interferometer based biosensor Octet (ForteBio). Recombinant human PD-1-huFc was either immobilized by standard amine coupling to amine reactive biosensors in 10 mM sodium acetate at pH 5.0 or capture by protein G biosensors (ForteBio). All the binding studies were performed in HBS-ET Octet kinetics buffer. Biosensors were always washed in Octet kinetics buffer in between different steps. A seven point, two-fold dilution series of each Humabody® VH was made with a top concentration in range 100-30 nM. The contact time for each of the association steps was varied between 180-300 seconds and the dissociation step was varied between 400-600 seconds. Kinetic association (kₐ) and dissociation (kd) rate constants were determined by processing and fitting the data to a 1:1 binding model using ForteBio Analysis software.

[8] = molecular target: T1, recombinant human PD-1 Fc chimera; assay: HTRF binding assay, His-tagged VH on 2 nM recombinant PD-1
Method: as §1

[9] = molecular target: T4, cynomolgus PD-1 (Acro Biosystems cat no. PD1-C5254) (cynomolgus, UniProt B0LAJ3 25-170); assay: as above
T4 construct: bought recombinant protein; also called cyno PD-1; cynomolgus PD-1 recombinant protein; not shown: Human Fc tag of the vendor's construct, and any linker to it; The Fc is implied by detection with anti human-Fc cryptate
T4 sequence (B0LAJ3 entry or part of it limits assumed): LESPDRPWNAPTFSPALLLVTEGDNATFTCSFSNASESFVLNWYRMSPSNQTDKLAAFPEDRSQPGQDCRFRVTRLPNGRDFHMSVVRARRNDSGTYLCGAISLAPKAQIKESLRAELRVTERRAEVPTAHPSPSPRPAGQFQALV
Method: as §1

[10] = molecular target: T2, human PD-1 expressed on cells (CHO …); assay: FMAT binding assay on CHO human PD-1 cells, detection by anti-His
Excerpt: Plates were read in the FL2 (502 nm-537 nm) and FL5 (677-800 nm) channels on the TTP Mirrorball plate reader following excitation at 488 nm and 640 nm. Data was gated on FL5 perimeter and peak intensity and the FL2 median mean fluorescence intensity of the gated data used for determination of VH binding.

[11] = molecular target: T2, human PD-1 expressed on cells (CHO …); assay: FMAT epitope competition on CHO human PD-1 cells; competitor 2 nM 1.1-Strep tagged protein
Method: (§2) For the epitope competition assay reagents were prepared in FMAT assay buffer. […] Plates were incubated for a minimum of 1.5 hours at room temperature then fluorescence measured in the FL2 (502 nm-537 nm) and FL5 (677-800 nm) channels on the Mirrorball plate reader (TTP) following excitation at 488 nm and 640 nm. Data was expressed as a % of the total binding control (i.e. % control) after subtraction of the background signal determined from the non-specific binding control wells.

[12] = molecular target: T2, human PD-1 expressed on cells (CHO …); assay: FMAT epitope competition on CHO human PD-1 cells; competitor 2 nM 2.1-Strep tagged protein
Method: as §2

[13] = molecular target: T1, recombinant human PD-1 Fc chimera; assay: HTRF inhibition assay: strep tagged human PD-L1 binding to recombinant human PD-1 (PD-L1 by legend paragraph 65; the sheet's title reads PD1:PDL2)
Method: All samples and reagents were prepared in HTRF assay buffer containing PBS, 0.1% (w/v) BSA and 0.4M Potassium Fluoride. […] Total binding controls containing periplasmic extract sample buffer and non-specific binding controls containing excess untagged competitor were set up on each plate for data normalisation. Time-resolved fluorescent emission at 620 nm and 665 nm was measured following excitation at 337 nm on the BMG PHERAstar plate reader. Data was expressed as a % of the total binding control (% control) after subtraction of the background signal determined from the non-specific binding control wells.

[14] = molecular target: T3, mouse PD1 (R&D Systems cat no. 1021-PD); assay: HTRF binding assay, 2 nM mouse PD-1
[15] = molecular target: T2, human PD-1 expressed on cells (CHO …); assay: FMAT, His-tagged VH on CHO human PD-1 cells
[16] = molecular target: T1, recombinant human PD-1 Fc chimera; assay: SPR (Biacore T200), PD-1-huFc amine-coupled to CM5, single cycle kinetics, 1:1 fit
Method: Binding kinetics of certain VH single domain antibodies binding to human PD-1-huFc were measured by surface plasmon resonance (SPR) technology using Biacore T200 instrument (GE Healthcare). Recombinant human PD-1-huFc was immobilized by standard amine coupling to CM5 sensorschip (GE Healthcare) using 0.01 mg/ml solution of antigen in 10 mM sodium acetate at pH 5.5. For the reference flow cell, a blank immobilisation was carried out. Single cycle kinetics assays were used to study the interaction, a five point, three-fold dilution series of each Humabody® was made with a top concentration of 30 nM. The binding kinetics were followed by flowing the Humabody® over the chip surface in HBS EP+ buffer at a flow rate of 30 μl/min. The contact time for each of the association steps was 180 seconds and the dissociation step was varied between 1200-3600 seconds. The data was fitted to a 1:1 binding model after double reference subtraction using the Biacore T200 Evaluation software.

[17] = molecular target: T2, human PD-1 expressed on cells (CHO …); assay: 2.1 epitope competition assay (FMAT, CHO human PD-1 cells; competitor 2.1-Strep); VH pre-incubated in mouse serum, Day 0
Method: (§3) Serum stability of VH was assessed by measurement of its activity following incubation for 0, 1, 4 or 7 days in both human and mouse serum (Sigma M5905). The pre-incubated samples were serially diluted and tested in the 2.1 epitope competition assay.
as §2

[18] = molecular target: T2, human PD-1 expressed on cells (CHO …); assay: 2.1 epitope competition assay (FMAT, CHO human PD-1 cells; competitor 2.1-Strep); VH pre-incubated in human serum at 37 C, Day 1
Method: as §3, §2

[19] = molecular target: T2, human PD-1 expressed on cells (CHO …); assay: 2.1 epitope competition assay (FMAT, CHO human PD-1 cells; competitor 2.1-Strep); VH pre-incubated in human serum at 37 C, Day 4
Method: as §3, §2

[20] = molecular target: T2, human PD-1 expressed on cells (CHO …); assay: 2.1 epitope competition assay (FMAT, CHO human PD-1 cells; competitor 2.1-Strep); VH pre-incubated in human serum at 37 C, Day 7
Method: as §3, §2

[21] = molecular target: T2, human PD-1 expressed on cells (CHO …); assay: 2.1 epitope competition assay (FMAT, CHO human PD-1 cells; competitor 2.1-Strep); VH pre-incubated in mouse serum at 37 C, Day 1
Method: as §3, §2

[22] = molecular target: T2, human PD-1 expressed on cells (CHO …); assay: 2.1 epitope competition assay (FMAT, CHO human PD-1 cells; competitor 2.1-Strep); VH pre-incubated in mouse serum at 37 C, Day 4
Method: as §3, §2

[23] = molecular target: T2, human PD-1 expressed on cells (CHO …); assay: 2.1 epitope competition assay (FMAT, CHO human PD-1 cells; competitor 2.1-Strep); VH pre-incubated in mouse serum at 37 C, Day 7
Method: as §3, §2

[24] = molecular target: T2, human PD-1 expressed on cells (CHO …); assay: 2.1 epitope competition assay (FMAT, CHO human PD-1 cells; competitor 2.1-Strep); VH pre-incubated in human serum, Day 0; Day 0, human serum
Method: as §3, §2

Control anitbody (antibody)
IC50 (read off the curve) [1]: 0.3 nM | IC50 (read off the curve) [2]: 0.3 nM

Control
EC50 (read off the curve), NFAT-luciferase reporter [3]: 5 nM | EC50 (read off the curve), NFAT-luciferase reporter [4]: 20 nM

B1: Blocking VH (VHH)
VHH: EVQLVESGGGLVKPGGSLRLSCAASGFTFSDESMTWMRQAPGKGLEWVSYISSGGGVKFYADSVKGRFTISRDNAKNSLYLQMNSLRAEDTAVYYCAREAPLRLGESPHDAFDISGQGTMVTVSS
EC50 (read off the curve), NFAT-luciferase reporter [5]: ~20 nM

B2: VH single domain antibody 1.1 (VHH)
VHH: EVQLLESGGGSVQPGRSLRLSCAASGFTFDDHAMHWVRQAPGKGLEWVSGISWNSGSMGYADSVKDRFTISRDNAKSSLYLQMNSLRAEDTALYYCVREKGPGLTGSTADYYGLDVWGQGTMVTVSS
notes: human VH single domain antibody (Humabody), purified through its C-terminal His tag; also called Humabody 1.1; clone 1.1
binding result [6]: no binding | Kd [7]: 1.9 nM | kon [7]: 450000 M⁻¹ s⁻¹ | EC50 [8]: 0.5 nM | EC50 [9]: 0.6 nM | EC50 (read off the curve) [10]: ~0.5 nM | IC50 [11]: 3.5 nM | IC50 [12]: 3.6 nM | IC50 (read off the curve) [13]: ~2 nM

B3: Humabody VH 1.39 (VHH)
VHH: EVQLVESGGGLVQPGRSLRLSCAASGFTFDDYALHWVRQAPGKDLEWVSGISWNGGSYGYADSVKGRFTISRDNAKNSLYLQMNSLRAEDTALYYCVREKGPGLTGSTADYYGLDAWGQGTMVTVSS
notes: human VH single domain antibody
binding result [14]: no binding | EC50 [15]: 0.6 nM | EC50 [8]: 2.6 nM | EC50 [9]: 6 nM | Kd [16]: 4.24 nM | koff [16]: 0.00134 s⁻¹ | kon [16]: 316000 M⁻¹ s⁻¹ | IC50 [11]: 8.9 nM | IC50 [12]: 9.7 nM | IC50 [17]: 8.7 nM | IC50 [18]: 10.1 nM | IC50 [19]: 10.2 nM | IC50 [20]: 9.3 nM | IC50 [21]: 9.3 nM | IC50 [22]: 11.1 nM | IC50 [23]: 11.6 nM | IC50 [24]: 12.9 nM

B4: VH single domain antibody 1.2 (VHH)
VHH: EVQLVESGGGLVQPGRSLRLSCAASGFTFDDYAMHWVRQAPGKDLEWVSGISWNGGSMGYAASVKGRFTISRDNAKNSLYLQMNSLRAEDTALYYCVKDKGPGLIGSTADYYGLDVWGQGTTVTVSS
notes: as for B3
binding result [6]: no binding | EC50 [8]: 0.9 nM | EC50 [9]: 1.1 nM | IC50 (read off the curve) [13]: ~5 nM
